Substitutions are numbered along the chain they refer to.
B1: type B EBNA2 comprising amino acids 216-392 (other)
chain: GHQLSLPPHPPPHQSTPHCSSDSTGLPPPPTSYSIPSMTLSPEPLPPPAAPAHPLPGVIYDQQALPPTPGPPWWPPVRDPTPTTQTPPTNTKQGPDQGQGRGRWRGRGRSKGRGRMHKLPEPRRPGPDTSSPSMPQLSPVVSLHQGQGPENSPTPGPSTAGPVCRVTPSATPDISPI
notes: range 216-392; Prepared by in vitro transcription and translation; gene provided by Dr. Elliott Kieff; also called type B peptide
B2: wild-type EBNA2 peptide comprised of amino acids 252-425 (type A) (other)
chain: LHVPDQSMHPLTHQSTPNDPDSPEPRSPTVFYNIPPMPLPPSQLPPPAAPAQPPPGVINDQQLHHLPSGPPWWPPICDPPQPSKTQGQSRGQSRGRGRGRGRGRGKGKSRDKQRKPGGPWRPEPNTSSPSMPELSPVLGLHQGQGAGDSPTPGPSNAAPVCRNSHTATPNVSPI
notes: range 252-425; In vitro transcribed and translated, labeled with 35S-methionine; also called aa252-425 (wild-type); E2 252-425
B3: EBNA2 252-425 PI326SR (CR6) (other)
chain: B2 chain with P75S, I76R
notes: range 252-425; In vitro transcribed and translated
B4: EBNA2 252-425 WW323SR (CR6) (other)
chain: B2 chain with W72S, W73R
notes: as for B3
B5: EBNA2 252-425 LGL389SRT (CR7) (other)
chain: B2 chain with L138S, G139R, L140T
notes: range 252-425; In vitro transcribed and translated; also called CR7 mutation
B6: EBNA2 252-425 GP320SR (CR6) (other)
chain: B2 chain with G69S, P70R
notes: as for B3
B7: EBNA2 252-425 SR360VD (PKC) (other)
chain: B2 chain with S109V, R110D
notes: range 252-425; In vitro transcribed and translated; also called PKC mutation

target: T1, CBF1/RBPJk (UniProt Q06330 1-500); assay: EMSA with two-fold increases in peptide amount, against type A EBNA2 252-425
T1 construct: also called CBF1 tethering protein
T1 sequence (Q06330 whole entry): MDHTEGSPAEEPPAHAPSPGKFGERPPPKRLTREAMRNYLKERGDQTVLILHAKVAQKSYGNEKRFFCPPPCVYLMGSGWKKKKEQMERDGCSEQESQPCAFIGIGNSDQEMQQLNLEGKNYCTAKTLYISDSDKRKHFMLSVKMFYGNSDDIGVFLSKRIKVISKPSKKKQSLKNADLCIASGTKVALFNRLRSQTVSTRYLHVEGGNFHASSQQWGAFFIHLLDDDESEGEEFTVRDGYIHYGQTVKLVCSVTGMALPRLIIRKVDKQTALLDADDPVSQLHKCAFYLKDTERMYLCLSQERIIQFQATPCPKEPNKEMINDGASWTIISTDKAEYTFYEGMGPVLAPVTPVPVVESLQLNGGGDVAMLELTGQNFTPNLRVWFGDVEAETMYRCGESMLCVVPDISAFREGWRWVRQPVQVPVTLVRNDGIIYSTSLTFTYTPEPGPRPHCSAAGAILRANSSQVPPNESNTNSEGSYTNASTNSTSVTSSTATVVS

Binder | fold more peptide required than type A EBNA2 for conversion of all the CBF1 to the supershifted complex
B1 | 2 fold

target: T1, CBF1/RBPJk; assay: EMSA supershift with heparin-agarose purified CBF1 and Cp CBF1 site probe; phosphoimager, relative to wild-type EBNA2(252-425)

Binder | % Complex formation
B2 | 100%
B3 | 5%
B4 | < 1%
B5 | 50%
B6 | 90%
B7 | 60%

target: T1, CBF1/RBPJk; assay: EMSA, against wild-type EBNA2 252-425

Binder | fold reduction in the amounts of EBNA2/CBF1 complex formed
B5 | ~2 fold
B7 | ~2 fold

Reference: patent US6495144 (Johns Hopkins, dated 2002)
